Test results reported in publication PMC4004541, “PEG-Like Nanoprobes: Multimodal, Pharmacokinetically and Optically Tunable Nanomaterials” (PLoS ONE, 2014).

Legend:
[1] = mouse, in vivo; for Alpha half-life / Beta half-life / k elim half-life / k perm half-life / k vas return half-life: iv
Protocol: To assess the relationship between PN dimensions and transcapillary passage, the classic two compartment pharmacokinetic model ( Figure 4A ) [17] was applied to PN(783)10.0 ( Figure 4B ) and PN(783)4.3 ( Figures 4C ).
Groups of 5 nude mice (female; 25–30 g; 6–8 weeks old; nu/nu) were injected (tail vein, IV) with 10 nmole of PN(783)4.3 or PN(783)10.0. 50 µl of blood was collected from tail tip at the indicated times. The blood was processed as above, and diluted (25 µl plasma, 700 µl of PBS). Fluorescence was measured with Cary Eclipse Fluorescence Spectrophotometer, excitation at 765 nm and emission from 790 to 880 nm. The fluorescence intensity at 806 nm was plotted over time, and the data was fit to a biexponential, two phase decay curve. The fast and slow distribution half-life was given by the two phase decay fit with Graphpad Prism software.
From the two phase decay fit, a biexponential equation for blood concentration as a function of time, [drawing 8] , was obtained. By the relation of macro constants and micro constants: [drawing 9] , [drawing 10] , [drawing 11] [drawing 12] , micro constants k's can be obtained, and the half-life was calculated by [drawing 13] , as described in [17]. The curve for interstitium concentration vs. time was fit with MATLAB based on the curve of blood concentration vs. time.
PN pharmacokinetics: Groups of 5 nude mice (female; 25-30g; 6-8 weeks old; nu/nu) were injected (tail vein, IV) with 10 nmole of PN(783)4.3 or PN(783)10.0. 50 μl of blood was collected from tail tip at the indicated times. The blood was processed as above, and diluted (25 μl plasma, 700 μl of PBS). Fluorescence was measured with Cary Eclipse Fluorescence Spectrophotometer, excitation at 765 nm and emission from 790 to 880 nm. The fluorescence intensity at 806 nm was plotted over time, and the data was fit with two-phase decay curve. The fast and slow distribution half-life was given by the two-phase decay fit with Graphpad Prism software.
Two compartment model: From the two-phase decay fit, a biexponential equation for blood concentration as a function of time, [picture] , was obtained. By the relation of macro constants and micro constants, [picture] , [picture] , [picture] , micro constants k's can be obtained, and the half-life was calculated by [picture] , as described in ^5. The curve for interstitium concentration vs. time was fit with MATLAB based on the curve of blood concentration vs. time.
Serum fluorescence data from Figure 3B and Figure 3C was analyzed using the two-compartment model as described ^5. Data were first fit to biexponential equation, yielding values of Alpha, Beta (apparent decay constants) and values of A and B as shown in equations 1 and 2 below.

[2] = Elimination by whole animal surface fluorescence imaging; format: in vivo; conditions: mice, after injection, n = 6
Protocol: Surface fluorescence images for representative animals are shown and total surface fluorescence is quantified in bar graphs to the right of the image. […] The pharmacokinetics and biodistributions of these PN’s is further analyzed below.
Figure 3 Role PEG in determining elimination by surface fluorescence imaging. A) Animals were injected with unPEGylated peptide and imaged at the times indicated. Bar graph gives whole animal surface fluorescence determined as means and standard deviations, n = 6.
(§1) A Kodak FX multispectral imaging system was used (Carestream Molecular Imaging, Rochester, NY). Excitation at multiple wavelengths (620, 650, 690, 710, 720, 730, 750 and 760 nm) with the emission at 830 nm was setup for IR-783 spectrum; Excitation at multiple wavelengths (420, 440, 460, 480, 510, 520, 530, and 540 nm) with the emission at 600 nm was setup for Cy3 spectrum; Excitation at multiple wavelengths (450, 470, 510, 520, 530, 540, 550, 570, and 590 nm) with the emission at 700 nm was setup for mCherry; with manufacturer’s software to separate (unmix) the IR-783 spectrum, Cy3 spectrum, or mCherry spectrum from skin autofluorescence and chlorophyll fluorescence from food. X-ray images were taken after fluorescence images. […]
as §1, with “Whole animal surface fluorescence imaging: All animal experiments in this work were approved by the Institutional Review Committee of the Massachusetts General Hospital. […]” for “A Kodak FX multispectral imaging system was used (Carestream Molecular Imaging, Rochester, NY).”

[3] = system: mCherry/HT29 cells; assay: Confocal microscopy of mCherry/HT29 tumor sections; format: in vivo, nude mice; conditions: tumor collected 48 h post IV injection
Protocol: With skin removed, an overlay of tumor mCherry (green) and PN(545)10.0 (purple) gave a white superimposition. To determine the cells responsible for the accumulation of PN(783)10.0 seen with surface fluorescence ( Figure 5C ), we employed confocal microscopy of mCherry/HT29 tumor sections ( Figure 5D ).
The mCherry-HT-29 tumor sample was collected at 48 h post IV injection with PN(497)10.0, and then cryosectioned with thickness of 5 µm. The tumor section was fixed with 4% PFA, mounted with 90% glycerol/10% PBS (at pH 8.5 for best fluorescein fluorescence), and stained with DAPI. Confocal imaging was performed on a Zeiss LSM510 laser scanning confocal microscope (Zeiss Axiophot, Carl Zeiss, Jena, Germany). A 405 nm diode Laser, 488 nm argon laser, and 561 nm diode laser were used for the excitation of DAPI, fluorescein, and mCherry, respectively. A primary dichroic HFT 405/488/561 was used in combination with an LP420 emission filter for DAPI, BP505-530 for fluorescein, and LP575 for mCherry. Images were analyzed with ImageJ64.
Confocal imaging: The mCherry-HT-29 tumor sample was collected at 48 h post IV injection with PN(497)10.0, and then cryosectioned with thickness of 5 µm. The tumor section was fixed with 4% PFA, mounted with 90% glycerol/10% PBS (at pH 8.5 for best fluorescein fluorescence), and stained with DAPI. […] Images were analyzed with ImageJ64.

[4] = system: HT-29 tumor; assay: SPECT/CT and surface fluorescence imaging of the EPR effect of the HT-29 tumor; format: in vivo, nude mice; conditions: 48 h post-injection, mice bearing HT-29 tumors
Protocol: A) SPECT/CT images of two mice bearing two HT-29 tumors as a function of time after injection. […] B) Surface fluorescence imaging of two additional mice bearing the same tumor.
Female nude mice (25–30 g; 6–8 weeks old; nu/nu) were anesthetized with 2% isoflurane/O2. HT-29 or mCherry-HT-29 cells were detached, pelleted and 200 µl of cell suspension containing 10^6 cells in Matrigel (BD Bioscience) was injected subcutaneously into right and left shoulders. Tumors were allowed to grow 5–7 days before experiments.
The imaging was performed by Triumph II multimodality imaging system (Gamma Medica Ideas, LLC) comprising XSPECT with four CZT (Cadmium Zink Telluride) detectors and X-O CT with CMOS detector. SPECT data of the ^111In-labeled compound was acquired for 60 min using 5-pinhole collimators and processed with 3D-OSEM algorithm using 4 subsets and 5 iterations. 3-dimensional CT data was processed with modified Feldkamp software. […] Animals were under isoflurane anesthesia (1.5%) with O2 flow (1.5 l/min) and kept warm during the imaging with a heated animal bed.

Substance | k perm expressed as a half-life [1] [h] | Alpha half-life [1] [h] | Beta half-life [1] [h] | k elim half-life [1] [h] | k perm half-life [1] [h] | k vas return half-life [1] [h] | Elimination seen by whole animal surface fluorescence [2] | Cellular localisation in tumor sections [3] | Distribution by SPECT and surface fluorescence [4]
(DOTA)Lys(PEG 5 kDa)-Cys(IR-783) [PN(783)4.3, PEG-like Nanoprobe: 5 kDa PEG, IR-783 fluorochrome, DOTA peptide] | 0.395 | 0.13 | 1.64 | 1.01 | 0.40 | 0.20 | bladder accumulation (arrow) at only 20 minutes post injection |  | 
(DOTA)Lys(PEG 30 kDa)-Cys(Fl) [PN(497)10.0, PEG-like Nanoprobe: 30 kDa PEG, fluorescein, DOTA peptide] |  |  |  |  |  |  |  | seen in mCherry/HT29 cells | 
(DOTA)Lys(PEG 30 kDa)-Cys(IR-783) [PN(783)10.0, PEG-like Nanoprobe: 30 kDa PEG, IR-783 fluorochrome, DOTA peptide] |  | 0.51 | 7.0 | 4.2 | 1.02 | 1.23 | excellent elimination at 48 h |  | seen only in the tumor
